Measured values taken from US9474783B2, “HIP/PAP protein and derivatives thereof for use in treating cancer” (priority 2012, dated 2016).

Legend:
PANC1 cells = assay: In vitro pancreatic cancer cell line growth (cell density, optical density); type: cell-based, Human
Protocol: (§1) The MCF7 (Human breast adenocarcinoma) and PANC1 (Human pancreatic carcinoma, epithelial-like cell line) cell lines were obtained from LGC-Promochem ATCC.
(§2) Sub-confluent cultures (70-80%) were split using Trypsin/EDTA and collected in serum free culture medium. Cell concentration was determined using Trypan blue staining and a Mallasez counting chamber.
(§3) Briefly, 1,000 cells per well were seeded in 96 well-plates. Cells were maintained in DMEM medium complemented with 1% antibiotics (P/S), and cultured in a humidified atmosphere at 37° C. and 5% CO2.
(§4) Cells were maintained in culture for 1 to 3 days (1 plate for each day of analysis). For control of cell survival/growth and validation of the experiments, equivalent cultures were performed in the presence of Foetal calf serum (5%).
(§5) The effect of increasing concentrations of ALF-5755 ranging from 0 to 2000 ng/ml was investigated over time up to 72 hours. Results for the optimal concentration (2000 ng/mL) only are presented below.
(§6) For each time point (24, 48, and 72 hours), 60 minutes prior to cell proliferation measurement, each plate received 10 μL of cell proliferation reagent per well.
(§7) The absorbance of the samples was measured against a background control using a 96-well plate reader at 450 nm with a reference wavelength of 690 nm.
(§8) Raw data are expressed as optical density.
(§9) Two-way ANOVA were performed to study ALF-5755 concentration incidence on cell growth and cell growth over time for each condition of culture (+/−ALF-5755 and +/−doxorubicin). Post-hoc Bonferroni were applied to reveal effects of ALF-5755 concentration at each time point, if any.

MCF7 cells = assay: In vitro mammary cancer cell line growth (cell density, optical density); type: cell-based, Human
Protocol: as §1, §2, §3, §4, §5, §6, §7, §8, §9

[1] = system: DHDK12 cells (liver metastases of colorectal cancer); assay: In vivo model of liver metastases of colorectal cancer (tumor area after partial hepatectomy); design: species or system BDIX rat; conditions: 0.5 mg/kg single injection; for ratio of tumor liver area to total liver area: 14 days after treatment
Protocol: DHDK12 cell line was derived from liver metastatic cells developed by BDIX rats after 1,2-Dimethylhydrazine) intoxication (chemically-induced cancer). Therefore, all experiments were performed in BDIX rat, the syngenic corresponding strain.
Cells were expanded in vitro in a medium composed of 50% DMEM and 50% F12 (Invitrogen Gibco, Pailsey, GB) complemented with foetal calf serum (10%) and a combination of antibiotics (1% penicillin/streptomycin). Absence of mycoplasm contamination was controlled.
At day 1 of the experiment, rats were anesthetized with isofluran gas. After laparotomy they received 20 millions of DHDK12 cells.
At day seven after the injection of cancerous cells, when the tumor was already implanted, two types of hepatectomies were performed: either 30% or 70% of the liver was resected.
The control group was composed of animals receiving either the equivalent volume of vehicle or no injection.
Fourteen days after hepatectomy and treatment, animals were sacrificed. Serial sections of complete liver were performed for each animal (millimetric sections, the number of sections depending on the liver size and morphology). The tumor expansion was assessed by quantifying in square pixels (pixel^2) the area of each cancer cells nodule. The complete area of each section was also recorded and a ratio of the nodule/total area was calculated. Analyses were performed with Adobe Photoshop CS3 software.
Depending on the experiment, one-tailed t-test or two-tailed Mann-Whitney tests were performed to quantify the effect of ALF-5755 on nodule expansion. Area of nodules was expressed as a percentage of total liver area.

[2] = system: PyMT cells (primary mammary carcinoma); assay: In vivo model of primary mammary cancer (tumor weight, survival)
Protocol: PyMT (Polyoma middle T) cell line was derived from a primary mammary carcinoma induced by PyMT oncogene activation in FBV mice. Therefore, all experiments were performed in FBV mice, the syngenic corresponding strain.
PyMT mice were sacrificed at 12/13 weeks when presenting a large tumoral mass. The tumour was dissected and cells were dissociated mechanically in DMEM/Glutamax medium and then filtrated. Dead cells were eliminated by centrifugation then viable cells were frozen in aliquots. For tumour implantation in FBV mice, appropriate number of aliquots cells was thawn.
At day 1 of the experiment, female mice received 1 million of PyMT cells, within the 8th mammal in the adipose tissue. Cells were injected as a solution in PBS (0.05 ml total pre-warmed at 37° C.).
Alzet pumps were implanted in the back of the mice, at the time of PyMT cell injection (experiment 1) or after tumor implantation, when doxorubicin treatment started (experiment 2). The pumps continuously delivered either 43.2 μg of ALF-5755 or vehicle per day for a period of 28 days.
Animals started to receive doxorubicin at the time when tumor was detected (15 days after PyMT cells injection for both, ALF-5755 and Vehicle groups) by intra-tumor injection. Animals receive during four weeks, a weekly dose of 1 mg/kg that was known to induce tumor cell-death.
At the end of doxorubicin treatment (6 weeks after the beginning of the procedure), animals were sacrificed.
The weight of the tumors was compared between the two groups by mean of non-parametric one tailed Mann whitney test. Survival was compared by mean of one-tailed exact Fischer test.

Molecule	EC50 (PANC1 cells; Homo sapiens, PANC-1, PANC1 cells at 72H)	reduction of the cell growth (PANC1 cells; doxorubicin 2.5 μM, effective at 48 hours post-plating, maintained at 72 hours)	EC50 (MCF7 cells; Homo sapiens, MCF7 cells at 24H)	reduction of the growth of MCF7 cancerous cells (MCF7 cells; doxorubicin 75 μM, 24 hours post-plating, maintained at 72 hours)	ratio of tumor liver area to total liver area ([1]; after 30% partial hepatectomy, control ratio 0.14)	decrease of tumor/total liver area ratio versus controls ([1]; after 30% partial hepatectomy, versus non-injected controls, p=0.022)	ratio of tumor liver area to total liver area ([1]; after 70% partial hepatectomy, control ratio 0.29)	decrease of tumor/total liver area ratio versus controls ([1]; after 70% partial hepatectomy, versus vehicle, p=0.0026)	additional decrease of cell density in combination to doxorubicin (PANC1 cells; ALF-5755 2000 ng/mL + doxorubicin 2.5 μM versus doxorubicin alone, 24 hours post-plating)	maximum additional reduction in cell density in combination to doxorubicin (MCF7 cells; ALF-5755 2000 ng/mL + doxorubicin 75 μM versus doxorubicin alone, 72 hours)	influence on the doxorubicin effect on cell density (MCF7 cells; ALF-5755 at any of the tested concentrations (0 to 2000 ng/ml) with doxorubicin 75 μM)	deaths during the experiment ([2]; exp 1, ALF-5755 infusion with doxorubicin, n=3)	tumor weight at day 45 after implantation ([2]; exp 1, infusion 43.2 μg per day for 28 days from implantation, with weekly intra-tumor doxorubicin, control 1.1±0.2 g, P=0.059)	deaths during the course of the experiment ([2]; exp 2, doxorubicin treated animals (1 mg/kg weekly intra-tumor for 4 weeks), same as group without doxorubicin)	deaths during the experiment, in total ([2]; exp 2, groups with and without doxorubicin pooled, n=14, placebo 6 of 14 died, P=0.008)	deaths during the course of the experiment ([2]; exp 2, infusion 43.2 μg per day for 28 days from tumor detection, group without doxorubicin, placebo 3 of 7 died)
COc1cccc2c1C(=O)c1c(O)c3c(c(O)c1C2=O)C[C@@](O)(C(=O)CO)C[C@@H]3O[C@H]1C[C@H](N)[C@H](O)[C@H](C)O1 [doxorubicin, reference compound]	2.5 µM	about 50%	75 µM	about 50%												
ALF-5755 (protein, listed as Homo sapiens) MEEPQRELPSARIRCPKGSKAYGSHCYALFLSPKSWTDADLACQKRPSGNLVSVLSGAEGSFVSSLVKSIGNSYSYVWIGLHDPTQGTEPNGEGWEWSSSDVMNYFAWERNPSTISSPGHCASLSRSTAFLRWKDYNCNVRLPYVCKFTD					0.05	about 60%	0.15	about 50%	up to 22%	33%	did not compromise the doxorubicin effect	no death observed	0.63 ± 0.12 g	exact same result	none	no death was observed
